The values that follow come from patent EP1662255A2 (THE JOHNS HOPKINS UNIVERSITY SCHOOL OF MEDICINE, dated 2006).

To fix the notation:
T1: GKAP1 (native, rat brain extracts) (rat, UniProt P97836 1-992)
T1 construct: mature
T1 sequence (looked up): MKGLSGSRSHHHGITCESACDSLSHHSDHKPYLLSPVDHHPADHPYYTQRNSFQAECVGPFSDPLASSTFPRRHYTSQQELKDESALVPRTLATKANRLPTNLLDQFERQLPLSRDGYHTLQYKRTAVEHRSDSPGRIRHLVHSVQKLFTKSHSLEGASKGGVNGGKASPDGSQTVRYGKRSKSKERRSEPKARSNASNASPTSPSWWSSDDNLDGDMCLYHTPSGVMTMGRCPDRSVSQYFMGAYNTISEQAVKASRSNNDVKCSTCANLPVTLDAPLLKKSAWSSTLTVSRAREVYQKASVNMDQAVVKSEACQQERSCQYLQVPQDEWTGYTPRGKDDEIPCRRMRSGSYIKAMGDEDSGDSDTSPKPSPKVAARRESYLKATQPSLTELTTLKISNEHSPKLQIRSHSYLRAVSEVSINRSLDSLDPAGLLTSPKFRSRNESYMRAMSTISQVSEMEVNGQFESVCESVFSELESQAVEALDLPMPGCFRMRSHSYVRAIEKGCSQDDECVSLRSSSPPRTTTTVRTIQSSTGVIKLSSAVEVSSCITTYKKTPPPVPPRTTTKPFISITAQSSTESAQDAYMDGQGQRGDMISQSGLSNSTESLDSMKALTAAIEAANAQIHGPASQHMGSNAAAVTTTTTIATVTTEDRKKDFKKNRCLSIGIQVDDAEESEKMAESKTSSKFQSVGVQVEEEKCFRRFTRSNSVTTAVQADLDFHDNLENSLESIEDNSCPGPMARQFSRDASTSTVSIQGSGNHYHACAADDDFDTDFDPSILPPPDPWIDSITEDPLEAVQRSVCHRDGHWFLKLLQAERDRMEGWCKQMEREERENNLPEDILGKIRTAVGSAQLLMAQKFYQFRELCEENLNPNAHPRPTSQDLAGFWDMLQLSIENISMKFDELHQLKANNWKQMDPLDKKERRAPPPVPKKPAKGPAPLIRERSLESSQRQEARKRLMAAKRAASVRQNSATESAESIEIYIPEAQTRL

T2: carboxy-terminal 347 amino acids of GKAP-3 (amino-terminal myc tag) (rat, UniProt P97838 631-977)
T2 construct: domain: carboxy-terminal 347 amino acids; also called GKAP-3/SAPAP3 carboxy-terminus
T2 sequence (looked up): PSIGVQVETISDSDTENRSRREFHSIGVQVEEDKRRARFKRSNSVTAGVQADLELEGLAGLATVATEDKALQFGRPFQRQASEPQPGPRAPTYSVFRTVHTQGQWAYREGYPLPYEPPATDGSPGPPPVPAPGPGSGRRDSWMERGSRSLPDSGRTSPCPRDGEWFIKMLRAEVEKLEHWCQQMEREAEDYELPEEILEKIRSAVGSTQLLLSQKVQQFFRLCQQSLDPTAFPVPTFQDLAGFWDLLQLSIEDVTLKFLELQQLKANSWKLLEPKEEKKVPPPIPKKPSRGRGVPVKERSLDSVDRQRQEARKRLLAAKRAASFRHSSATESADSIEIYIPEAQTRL

B1: GST-GKAP(carboxy-terminal) (other, UniProt P97836-5 591-666, looked up)
chain: MDPLDKKERRAPPPVPKKPAKGPAPLIRERSLESSQRQEARKRLMAAKRAASVRQNSATESAESIEIYIPEAQTRL
notes: domain: carboxy-terminal 76 amino acids; also called carboxy-terminal 76 amino acids of GKAP1a fused to GST; not shown: glutathione S-transferase fusion partner
B2: SAP102 PDZ1-3 (GST fusion) (other, UniProt Q62936 149-484, looked up)
chain: EIVLERGNSGLGFSIAGGIDNPHVPDDPGIFITKIIPGGAAAMDGRLGVNDCVLRVNEVDVSEVVHSRAVEALKEAGPVVRLVVRRRQPPPETIMEVNLLKGPKGLGFSIAGGIGNQHIPGDNSIYITKIIEGGAAQKDGRLQIGDRLLAVNNTNLQDVRHEEAVASLKNTSDMVYLKVAKPGSLHLNDMYAPPDYASTFTALADNHISHNSSLGYLGAVESKVTYPAPPQVPPTRYSPIPRHMLAEEDFTREPRKIILHKGSTGLGFNIVGGEDGEGIFVSFILAGGPADLSGELRRGDRILSVNGVNLRNATHEQAAAALKRAGQSVTIVAQYR
notes: domain: PDZ 1-3; also called SAP102 PDZI-3; not shown: glutathione S-transferase fusion partner
B3: GRIP PDZ 4-6 (GST fusion) (other, UniProt P97879 471-754, looked up)
chain: EVVLTADPVTGFGIQLQGSVFATETLSSPPLISYIEADSPAERCGVLQIGDRVMAINGIPTEDSTFEEANQLLRDSSITSKVTLEIEFDVAESVIPSSGTFHVKLPKKHSVELGITISSPSSRKPGDPLVISDIKKGSVAHRTGTLELGDKLLAIDNIRLDSCSMEDAVQILQQCEDLVKLKIRKDEDNSDEQESSGAIIYTVELKRYGGPLGITISGTEEPFDPIIISSLTKGGLAERTGAIHIGDRILAINSSSLKGKPLSEAIHLLQMAGETVTLKIKKQT
notes: domain: PDZ 4-6; also called PDZ domains of GRIP; not shown: glutathione S-transferase fusion partner
B4: recombinant mGluR5 carboxy-terminal 241 amino acid peptide (receptor, UniProt P31424 963-1203, looked up)
chain: AAGGGSGPGVAGAGNAGCTATGGPEPPDAGPKALYDVAEAEESFPAAARPRSPSPISTLSHLAGSAGRTDDDAPSLHSETAARSSSSQGSLMEQISSVVTRFTANISELNSMMLSTAATPGPPGTPICSSYLIPKEIQLPTTMTTFAEIQPLPAIEVTGGAQGATGVSPAQETPTGAESAPGKPDLEELVALTPPSPFRDSVDSGSTTPNSPVSESALCIPSSPKYDTLIIRDYTQSSSSL
notes: domain: carboxy-terminal 241 amino acids; Expressed in heterologous cells for GST pulldown; also called mGluR5 carboxy-terminal tail; mGluR5 C-terminal tail

The target in assay [1] is T1, GKAP1 (native, rat brain extracts). The assay is described as follows: GST pull-down from rat brain extracts.
Assay [2] has as its target T2, carboxy-terminal 347 amino acids of …. The assay is described as follows: GST pulldown from HEK293 lysate.
Assay [3] concerns the target B3. Briefly: GST pulldown from extracts of heterologous cells.
The target of assay [4] is B2. Briefly: GST pulldown from extracts of heterologous cells.

Regarding B1, the binding result in assay [1] is listed as “no binding”.

For B2, in assay [2], the binding result is on record as “no binding”.

Regarding B3, in assay [2], the binding result is reported as “no binding”.

As for B4, the binding result in assay [3] and in assay [4] was “no binding” each time.
